B1: OR4K15 (parent)
chain: GUUAACGGUCAUAGGCCAUGGAAACUAGGAGCACCAUUUCGCUGCCAGUGAAGAAAUGAACAAAGAAAAUCUGGGCCAGGCAGGCAUCAAAAGAAAUAGUCUUGCGCUCAACCAGAAAGUCUGUAAUCAUUUUAAGGGUA

Variants of: B1
Experiment: self-cleavage, relative activity (ratio to wild type); higher = more cleavage; in vitro, sequencing; the parent is a self-cleaving ribozyme

Variant | self-cleavage
G15A A129G | 1.19
A18G U127A | 1.64
A18G U127C | 1.53
A18G A69G | 1.9
C17A A135C | 1.23
A18U C85U | 1.37
C16U A30U | 1
C16U A30G | 1.27
A18U A63G | 0.84
C17U U131A | 0.93
C17U U131C | 0.73
A18U A55C | 1.22
C16U A22U | 1.32
C16U A22C | 1.53
A18U A110C | 0.23
C16A U39A | 1.23
G14U U38C | 0.66
A18G G79A | 0.24
A18U C101A | 0.05
U19A A33C | 1.31
A18U A36G | 1.65
G15U U72G | 0.36
G15A A95G | 1.73
G15C G73A | 0.17

Variant | self-cleavage
A18U U49G | 1.01
G14A A110G | 0.13
C16U U103C | 0.77
A18G G44A | 1.66
A18U A54G | 1.28
A18C U103C | 0.86
G15U U38A | 1.8
A18G A56G | 1.27
A18U A30G | 1.39
A18G U19A | 1.57
A18G U19C | 1.06
G15A A126G | 1.51
A18G U132C | 0.77
A13U U132A | 0.96
A13U U132C | 2.18
C17U U132C | 1.02
A18U A33C | 1.61
A18U A33G | 0.61
A18U U19A | 1.53
A18U U19C | 0.12
A18G A98G | 0.59
U19A A86U | 1.87
A18C A52G | 1.51
G14A C71U | 0.37

Variant | self-cleavage
A18U A89G | 1.59
A18U A89C | 0.9
C17U A24U | 1.29
G15U | 0.69
G15C | 1.05
G15A | 0.92
C16G A47U | 0.8
C17U U100A | 0.96
A18U G79A | 0.05
C16U U39G | 1.27
G15A A33G | 0.94
A18G A24U | 1.6
A18G A24G | 1
A18G U87G | 0.98
G14A U124C | 0.47
A13U C107U | 0
A18G A68G | 1.16
G14U A52U | 1.71
G15U U87A | 1.44
G15A U108A | 0.01
G15A U108C | 0
U19A A92U | 2.13
U19A A92G | 1.47
G14A A134U | 0.5

Variant | self-cleavage
A18G A33U | 1.92
G14A A111G | 0.01
A18C A68U | 1.04
A18G A66G | 1.81
A13U U38C | 0.61
A18G C105U | 0.29
A18U A69G | 1.92
A18U A69U | 1.37
G15U A82U | 0.23
C17U U124A | 1.1
C16U A111G | 0.05
C16U A118G | 1.16
G14A A90C | 0.98
A13U G73A | 0.16
A18G A64G | 1.11
A18G A64U | 1.92
C16G A89G | 0.74
A18G U39C | 1.77
A18G U39A | 1.96
A18G A134U | 1.88
A18G U49A | 1.54
A18C A140G | 0.94
A18U A135G | 1.36
A18G A95G | 1.38

Variant | self-cleavage
A18C A111G | 0.02
A18G A23U | 1.88
U19A A68G | 1.64
G15A A118G | 0.47
C17U U43A | 1.18
A18U U132C | 1.75
G14A A69G | 1.03
A18G A63G | 1.17
A18G A89G | 2.05
G14A A140G | 1.89
C16G A95G | 1.06
A18U U108A | 0.02
G15A A66U | 1.18
G15C A111G | 0.01
A13U G80C | 0.26
A18G A90U | 2.38
A18G A90G | 1.36
A18U A129G | 1.24
G15U A118G | 1.88
C16U A66U | 1.27
C16U U38C | 0.76
A18G A92G | 1.3
G14A G20A | 1.49
G15A U19C | 0

Variant | self-cleavage
A18U A47G | 1.05
A18U A90U | 1.13
G14A A18G | 1.29
C17U A94G | 1.32
G14U A116G | 0.63
A18G U131C | 1.63
A18C A47G | 0.59
G15A C113G | 0.02
A18U G28A | 1.78
A18C U127C | 0.63
A18G A126C | 0.48
A18G A126U | 0.44
A18U A68G | 0.74
A18U A68U | 2.28
A13U U127C | 0.75
G15A A68G | 1.73
A18G G104A | 0.02
C16U A55G | 1.63
C17U A129G | 0.43
G14U U102A | 0.36
G15A U122C | 0.95
G14C A89G | 2.26
G15A U131G | 1.44
G14A A30G | 2.84

Variant | self-cleavage
C16G A68G | 0.69
A18G U72A | 0.37
A18G U72C | 0.38
A18U A95G | 1.96
C17U A18U | 1.26
A18G A91U | 1.94
G14A A33U | 1.16
G15A A64U | 1.37
C16U U72A | 0.53
A18U U131C | 0.74
A18U A27C | 1.5
A18U A94G | 1.06
C16G A55G | 0.86
A13U U97C | 1.4
C17U A110G | 0.05
A18G A140G | 0.55
A18U A92G | 1.04
C17U A23G | 1.37
C17A U19C | 0.87
C16U C85U | 1.15
A18U C88U | 0.43
A18G A114G | 0.77
A18G A114U | 0.14
G15A U120A | 1.72

Variant | self-cleavage
G15A U120C | 1.01
G14U A89G | 1.39
C17A A24G | 1.64
A18G U43A | 1.23
A18G U43C | 1.52
A18G A47U | 1.1
A18U U87A | 1.04
A18U U87C | 1.41
A18G A55G | 1.07
G14A A63U | 1.23
A18U U127C | 0.91
G15C A51U | 1.07
G15A A86G | 1.6
G15C A78U | 0.37
C16U A110U | 0.72
A18U A22G | 1.12
U19A A51G | 1.36
U19A A51U | 2.15
G14C A118G | 0.43
A18U A140G | 1.49
A18U A140U | 1.33
C17U A114G | 0.54
C17A A59U | 1.14
A18C U39A | 1.48

Variant | self-cleavage
C16G A24G | 0.51
C16U U120C | 1.42
A18G G50A | 0.74
A18G A94U | 1.4
G15A A23G | 0.9
A18G A118U | 0.64
A18U G74A | 0.22
C16A U38C | 0.92
U19A A89G | 0.78
C17U U108C | 0
C17U A135G | 1.05
C16G U124A | 0.77
A18G U122C | 1.32
A18U A62U | 1.56
A18U A62G | 1.37
A18U A62C | 0.88
C17U A95G | 2.06
G15A A62G | 0.1
C16A U102C | 1.49
C16U A140G | 1.64
C16U G73A | 0.15
C16U A96G | 1.27
U19A A67G | 1.84
A18C U130C | 0.96

Variant | self-cleavage
A18G U103A | 1.13
A18G U103G | 0.05
U19A A59U | 1.72
A18G A30G | 0.88
A18G A30U | 1.01
G15U A69G | 1.46
C16U A78G | 0.62
A13U U108C | 0.01
A18G C101U | 0.85
C16U A114G | 0.2
A18U A118G | 0.6
C16A U57G | 0.88
A18U U43G | 1.5
A18U U43C | 1.42
A18G A86C | 1.68
A18U U130C | 1.37
G15U G136A | 2.24
A18U A59G | 1.2
A18U A59U | 0.69
G14A A66G | 0.8
A18G U38G | 1.56
A18U U38C | 1.28
G14A A64G | 1.06
G14U U87C | 1.48

Variant | self-cleavage
U19A A78U | 0.35
U19A A78C | 0.29
C17U A47U | 1.43
U19A A82G | 0.68
A18G G41A | 1.53
A18U A52G | 1.7
A18U G41A | 1.09
G14A A78U | 0.22
A18U A117G | 1.72
C17U U102C | 0.9
C17U A118G | 1.1
A18G A110U | 1.32
C16U G137A | 0.85
A18G G48A | 1.81
A18U A24G | 1.31
C17U | 0.8
C17A | 1.46
G14A A23G | 0.8
A18C U43C | 1.44
U19A A24G | 0.29
A18G A129G | 1.25
A18G G138A | 1.27
A18U A82U | 0.16
A18U A82G | 0.46

Variant | self-cleavage
C16U U57C | 1.14
G14A | 1.24
G14C | 1.4
G14U | 1.11
U19A A66U | 1.07
U19A A66G | 1.27
A18G C71U | 0.22
C17U A30G | 1.03
C16U A54G | 0.87
A18U U70C | 1.04
C16A A56C | 0.52
C17A A118G | 0.97
C16A G83U | 0.41
G15A A51G | 1.52
G15A A51U | 1.78
A18U A96C | 1.02
A18U U139C | 1.45
C17A A56G | 2.2
C16U A23U | 1.24
G14C U127C | 1.15
A18G A36G | 1.4
A18U U133C | 2.02
G14A U19A | 0.91
G15A U43C | 1.35

Variant | self-cleavage
G14A A86G | 1.02
A18G U37C | 1.04
A18C U57C | 0
A18G U102A | 1.13
A18G U102C | 1.64
G15A A24G | 1.4
A18G U57G | 1.21
A18U A78U | 0.45
A13U C121A | 1.92
A13U U49C | 1.28
A18U U122C | 0.87
A18U U122A | 0.64
G15U A56G | 1.89
G15A U72C | 0.37
A18G A59U | 1.65
A18G A59C | 1.7
A18G A59G | 1.19
A18U U37C | 0.8
C17A A78G | 0.1
A18G A117G | 0.59
U19A A64G | 1.03
G15A U103C | 0.82
A18U A114G | 0.35
G15C U108C | 0.03

Variant | self-cleavage
A18C A129G | 0.75
C16U A94U | 1.89
G14U A56G | 1.18
A18C A96U | 0.98
C17A U103C | 1.08
A18U A51U | 1.24
A18U A51G | 1.4
G15C G83A | 2.06
C17U A66G | 1.68
C16A A22G | 1.29
G14A C40A | 1.54
A18C A95G | 2.19
G14C U132C | 1.04
G14A A36U | 0.83
A18C U108C | 0.01
C17U U38A | 1.03
A18U A64G | 0.9
A18G U26A | 1.1
G14U A54G | 1.65
A18G A78G | 0.33
A18U U103C | 1.29
A18U C42U | 1.18
